The values below come from patent publication US20170065725A1.

Chain of PEG rhTSH (20 KD SAM), monoPEGylated (ligand) (P01215 25-116): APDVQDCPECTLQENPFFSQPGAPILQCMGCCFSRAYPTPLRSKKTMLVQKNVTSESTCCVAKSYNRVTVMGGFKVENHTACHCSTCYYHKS
Chain of PEG rhTSH (20 KD SAM), monoPEGylated (ligand) (P01222 21-138, further chain): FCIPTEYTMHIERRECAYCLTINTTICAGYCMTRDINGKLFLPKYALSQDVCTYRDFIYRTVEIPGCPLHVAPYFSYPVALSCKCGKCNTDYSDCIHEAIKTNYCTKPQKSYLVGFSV
Chain of PEG rhTSH (40 KD GAM-), monoPEGylated (ligand) (P01215 25-116): as the sequence (P01215 25-116) above
Chain of PEG rhTSH (40 KD GAM-), monoPEGylated (ligand) (P01222 21-138, further chain): as the sequence (P01222 21-138, further chain) above
Chain of PEG rhTSH (20 KD GAM-), monoPEGylated (ligand) (P01215 25-116): as the sequence (P01215 25-116) above
Chain of PEG rhTSH (20 KD GAM-), monoPEGylated (ligand) (P01222 21-138, further chain): as the sequence (P01222 21-138, further chain) above
Chain of PEG rhTSH (40 KD SAM), monoPEGylated (ligand) (P01215 25-116): as the sequence (P01215 25-116) above
Chain of PEG rhTSH (40 KD SAM), monoPEGylated (ligand) (P01222 21-138, further chain): as the sequence (P01222 21-138, further chain) above
Chain of PEG rhTSH (40 KD GAM+), monoPEGylated (ligand) (P01215 25-116): as the sequence (P01215 25-116) above
Chain of PEG rhTSH (40 KD GAM+), monoPEGylated (ligand) (P01222 21-138, further chain): as the sequence (P01222 21-138, further chain) above
Chain of mono-40 kDa NHS PEG-TSH (Lysine PEGylation) (ligand) (P01215 25-116): as the sequence (P01215 25-116) above
Chain of mono-40 kDa NHS PEG-TSH (Lysine PEGylation) (ligand) (P01222 21-138, further chain): as the sequence (P01222 21-138, further chain) above
Chain of PEG rhTSH (20 KD GAM+), monoPEGylated (ligand) (P01215 25-116): as the sequence (P01215 25-116) above
Chain of PEG rhTSH (20 KD GAM+), monoPEGylated (ligand) (P01222 21-138, further chain): as the sequence (P01222 21-138, further chain) above
Chain of PEG rhTSH (10 KD SAM), monoPEGylated (ligand) (P01215 25-116): as the sequence (P01215 25-116) above
Chain of PEG rhTSH (10 KD SAM), monoPEGylated (ligand) (P01222 21-138, further chain): as the sequence (P01222 21-138, further chain) above
Chain of PEG rhTSH (10 KD MultiSAM) (ligand) (P01215 25-116): as the sequence (P01215 25-116) above
Chain of PEG rhTSH (10 KD MultiSAM) (ligand) (P01222 21-138, further chain): as the sequence (P01222 21-138, further chain) above

For this experiment, the target named is porcine TSH receptor (immobilized, TSH Receptor Autoantibody 2nd Generation ELISA kit, RSR Limited) (porcine) (UniProt Q8SPP9). In words: competition ELISA; inhibition of biotinylated rhTSH binding to immobilized porcine TSH receptor. In general terms: ELISA stands for enzyme-linked immunosorbent assay.
Chain of porcine TSH receptor (immobilized, TSH Receptor Autoantibody 2nd Generation ELISA kit, RSR Limited) (porcine) (Q8SPP9 22-764 limits assumed): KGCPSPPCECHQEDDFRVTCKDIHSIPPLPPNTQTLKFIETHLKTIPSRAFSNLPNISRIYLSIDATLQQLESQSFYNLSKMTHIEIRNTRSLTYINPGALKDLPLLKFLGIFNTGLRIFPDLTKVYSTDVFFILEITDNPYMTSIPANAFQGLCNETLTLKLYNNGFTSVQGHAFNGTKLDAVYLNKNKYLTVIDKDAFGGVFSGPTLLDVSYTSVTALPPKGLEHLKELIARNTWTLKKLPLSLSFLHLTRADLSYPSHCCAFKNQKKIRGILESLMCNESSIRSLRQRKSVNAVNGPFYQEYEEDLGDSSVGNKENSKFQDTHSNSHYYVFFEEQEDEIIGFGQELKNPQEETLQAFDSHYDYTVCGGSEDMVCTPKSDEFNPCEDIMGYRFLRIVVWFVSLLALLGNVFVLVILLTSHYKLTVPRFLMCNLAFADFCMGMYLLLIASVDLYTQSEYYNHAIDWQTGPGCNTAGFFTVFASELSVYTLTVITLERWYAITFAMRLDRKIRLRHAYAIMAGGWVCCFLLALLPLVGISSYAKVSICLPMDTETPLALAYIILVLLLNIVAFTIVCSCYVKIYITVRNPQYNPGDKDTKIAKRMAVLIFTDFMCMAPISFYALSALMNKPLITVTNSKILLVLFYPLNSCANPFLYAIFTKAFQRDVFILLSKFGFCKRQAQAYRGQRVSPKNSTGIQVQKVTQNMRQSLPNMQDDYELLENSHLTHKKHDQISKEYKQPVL
Regarding PEG rhTSH (10 KD MultiSAM) (ligand), the IC50 (commonly the concentration that gives 50% inhibition) worked out at 138 nM and the fold change (IC50 against rhTSH) was found to be 3.8 fold.
In turn, “PEG rhTSH (10 KD SAM), monoPEGylated (ligand)” had an IC50 of 78.1 nM and a fold change (IC50 against rhTSH) of 2.1 fold.
Consider “PEG rhTSH (20 KD GAM+), monoPEGylated (ligand)”, for which the IC50 came out at 81.7 nM and the fold change (IC50 against rhTSH) is 2.2 fold.
For “PEG rhTSH (20 KD GAM-), monoPEGylated (ligand)”, in that order: 101 nM and 2.7 fold.
The corresponding values for “PEG rhTSH (20 KD SAM), monoPEGylated (ligand)” are 92.3 nM and 2.5 fold.
“PEG rhTSH (40 KD GAM+), monoPEGylated (ligand)” had an IC50 of 133 nM and a fold change (IC50 against rhTSH) of 3.6 fold.
In turn, “PEG rhTSH (40 KD GAM-), monoPEGylated (ligand)” had an IC50 of 294 nM and a fold change (IC50 against rhTSH) of 8 fold.
For “PEG rhTSH (40 KD SAM), monoPEGylated (ligand)”, in that order: 196 nM and 5.3 fold.
For “mono-40 kDa NHS PEG-TSH (Lysine PEGylation) (ligand)”, in that order: 876 nM and 31.2 fold.
